Assays:
Experiment in all cases: cell-based or functional assay
[1] = target: HIV-1 IN within Gag-Pol (Gag-Pol polyprotein encoded by pCMVDR8.2) (HIV-1)
[2] = target: HIV-1 IN H12Y within Gag-Pol (pCMV-H12Y) (HIV-1)
[3] = target: HIV-1 IN within Gag-Pol of the molecular clone HIV-1R3B (HIV-1)

| Substance | decrease in the viral titers as compared to the control [1] [fold] | inhibition of p24 production [1] [fold] | % inhibition [1] [%] | P24 of culture supernatants [1] [ng/mL] | decrease in the level of H12Y virion associated p24 production [2] [fold] | % inhibition [3] [%] | p24 of culture supernatants [3] [ng/mL] |
| --- | --- | --- | --- | --- | --- | --- | --- |
| HA-E3 (from UniProt Q12824 183-294) | 2 | 2 |  |  |  |  |  |
| HA-INI1 aa 1-245 (clone 27B) (from UniProt Q12824 1-245) |  |  | 16 | 95.6 |  |  |  |
| HA-INI1 aa 141-385 (clone 20.2) (from UniProt Q12824 141-385) |  |  | 69 | 35.4 |  |  |  |
| HA-S6 (HA-INI1 aa 183-294) (from UniProt Q12824 183-294) |  | 80000 | 100 | 0 | 10 | > 99.7 | 0.69 |
